Numbering of substitutions follows the chain as printed. “And” between values parts separate entries of the source, which are not always exact repeats. Identical values can stand only once. Like-named read-outs stand apart in the source and are kept apart here.

A word on the EC50 (read off the curve): it is the concentration needed to bring the measured effect to its halfway point. A lower EC50 (read off the curve) goes with higher potency in that assay. The term Kd denotes a measure of binding affinity in units of concentration. The low end stands for tighter binding, the high end for weaker binding.

Assay [1] addresses T1, peptide-conjugate (Example 1; lactosyl-Ser-…-Cys coupled to KLH) (influenza virus).
Assay [2] concerns the target peptide of Example 1 (influenza virus). The assay is described as follows: SPR, mAb captured on anti-mouse Fc, peptide injected; average. In general terms: Surface plasmon resonance follows binding to a sensor surface in real time, without labels.
For assay [3] the target is unchanged. Briefly: SPR, mAb captured on anti-mouse Fc, peptide injected.
Assay [4] concerns the target hemagglutinin of H7N7 A/Netherlands/219/2003 (influenza virus H7N7 A/Netherlands/219/2003). Briefly: dot blot, 4M urea; rHA (Prot. Sc.), dot 9.
The target in assay [5] is hemagglutinin of H9N2 A/Hong Kong/1073/1999 (influenza virus H9N2 A/Hong Kong/1073/1999). Briefly: dot blot, 4M urea; rHA (Prot. Sc.), dot 10.
The target in assay [6] is hemagglutinin of H5N1 A/Indonesia/05/2005 (influenza virus H5N1 A/Indonesia/05/2005).
In assay [7] the target is hemagglutinin of H5N1 A/Vietnam/1203/2004 (influenza virus H5N1 A/Vietnam/1203/2004). Briefly: dot blot, 4M urea; rHA (Prot. Sc.), dot 8.
The target of assay [8] is hemagglutinin of H5N1 A/Indonesia/05/2005 (influenza virus H5N1 A/Indonesia/05/2005). Briefly: dot blot, 4M urea; rHA (Prot. Sc.), dot 7.
In a further assay the target is Non-related protein. The assay is described as follows: dot blot, 4M urea; negative control, dot 16.
In assay [9] the target is T1, peptide-conjugate (Example 1; …). The source holds these as a separate data set.

B1: F211-9D1 (antibody, V domains shown)
VL: DIVMSQSPSSLAVSVGEKVTMSCKSSQSLLNSRNQKNHLAWYQQKPGQSPKLLIYWASTRESGVPDRFSGDGSGTDFTLTISSVKAEDLAVYYCQQYYTYRTFGGGTKLEIK
VH: DVQLQESGPGLVKPSQSLSLTCSVTGYSITSDYYWNWIRQFPGNKLEWMAYIGYDGSKNYNPSLKNRISITRDTSKNQFFLKLNSVTTDDTATYYCTRDRANWDDYFDYWGQGTTLTVSS
For the molecule B1, the EC50 (read off the curve) in [1] was 0.03 µg/mL.

B2: F211-11H12 (antibody, V domains shown)
VL: B1 VL with S69T
VH: B1 VH with S57T
Turning to B2, the Kd in assay [2] and in [3] was 0.465 nM each time.

B3: F211-11H12 (antibody, V domains shown)
VH: B1 VH with S57T
VL: B1 VL with S69T
As to B3, the signal intensity (arbitrary fluorescent units) came to 488 in assay [4]; 3570 in assay [5]; 43100 in [6]; 45900 in [7]; 22200 in [8]; 38 with Non-related protein.

B4: F211-9D1 (antibody, V domains shown)
VH: B1 VH
VL: B1 VL
For B4, the signal intensity (arbitrary fluorescent units) in assay [4] is 425; in assay [5], 3760; in assay [6], 46700; in [7], 46800; in assay [8] it was 10100; with Non-related protein, 47.

B5: CHO-11H12 (antibody, V domains shown)
VL: B1 VL with S69T
VH: B1 VH with S57T
In turn, B5 gave a Kd in assay [2] of 0.639 nM.

B6: F211-10A9 (antibody, V domains shown)
VL: DIVMTQSPSSLAMSVGQKVTMSCKSSQSLLNSDTQKNFLAWYQQKPGQSPKILVYFASTKESGVPDRFIGSGSGTDFTLTITSVQAEDLADYFCQQYYSIPLTFGAGTKLELK
VH: QIQLQQSGPELVKPGAPVKISCKASGYTFTDYYIHWVNQRPGQGLEWIGYIYPGNGHTVYNQKFKVRATLTADNPSSTAYLQLNSLTSEDSGVYFCAYDLFNYWGQGTLVTVSA
With B6, the Kd in [2] and in assay [3] was 0.338 nM each time. Moreover, in assay [9], the EC50 (read off the curve) was 0.05 µg/mL and 0.03 µg/mL.

B7: F211-10A9 (antibody, V domains shown)
VH: B6 VH
VL: B6 VL
In the case of B7, the signal intensity (arbitrary fluorescent units) in [4] was determined as 42000; in assay [5] it was 2970; in assay [6], 28600; in assay [7], 8260; in assay [8], 165; with Non-related protein, 34.

B8: CHO-10A9 (antibody, V domains shown)
VL: B6 VL
VH: B6 VH
For B8, the Kd in assay [2] worked out at 0.365 nM.

For the origin of these results see patent US20190352376A1.
